Measurements from publication PMC5883317 (Journal of Molecular and Cellular Cardiology, 2018).

Experiments:
[1] = target: F-actin (rabbit skeletal actin) (rabbit) (UniProt P68135)
[2] = target: RLC-depleted isolated porcine β-cardiac myosin (porcine) (UniProt P79293); experiment: reconstitution of RLC-depleted myosin, SDS-PAGE densitometry
[3] = target: cardiac myosin binding protein-C fragment spanning domains C0 to C2 (C0C2) (UniProt Q14896 1-452); experiment: MST
[4] = target: T1, wildtype myosin regulatory light chain (WT-RLC), unlabeled recombinant (human, UniProt P10916 1-166); experiment: other fluorescence titration
T1 sequence (looked up): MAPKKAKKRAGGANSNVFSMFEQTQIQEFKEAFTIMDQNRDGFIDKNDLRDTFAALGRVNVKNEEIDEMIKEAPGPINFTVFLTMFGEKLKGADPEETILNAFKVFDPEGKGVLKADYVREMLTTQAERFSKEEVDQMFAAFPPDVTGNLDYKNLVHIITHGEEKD

Chain of cardiac myosin binding protein-C fragment spanning domains C0 to C2 (C0C2) (Q14896 1-452): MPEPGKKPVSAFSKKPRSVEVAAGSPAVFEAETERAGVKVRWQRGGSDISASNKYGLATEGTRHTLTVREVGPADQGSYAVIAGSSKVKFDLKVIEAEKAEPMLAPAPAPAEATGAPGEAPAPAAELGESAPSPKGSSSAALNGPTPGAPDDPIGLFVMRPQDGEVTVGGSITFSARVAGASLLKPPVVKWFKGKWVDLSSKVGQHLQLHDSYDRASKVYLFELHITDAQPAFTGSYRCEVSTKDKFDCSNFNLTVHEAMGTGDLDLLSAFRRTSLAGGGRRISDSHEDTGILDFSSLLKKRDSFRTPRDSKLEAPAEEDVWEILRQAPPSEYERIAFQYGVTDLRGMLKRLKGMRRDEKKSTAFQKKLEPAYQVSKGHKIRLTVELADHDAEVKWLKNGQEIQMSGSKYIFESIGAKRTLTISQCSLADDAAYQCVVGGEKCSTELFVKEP

In the case of “porcine β-cardiac myosin fully reconstituted with R58Q-RLC (from UniProt P79293 1-1935; P10916 1-166) (complex)”, the KM for F-actin of the F-actin activated myosin ATPase (Michaelis-Menten fit) [1] is reported as 2.91 µmol/L.

In the case of “porcine β-cardiac myosin fully reconstituted with WT-RLC (from UniProt P79293 1-1935; P10916 1-166) (complex)”, the KM for F-actin of the F-actin activated myosin ATPase (Michaelis-Menten fit) [1] is reported as 1.5 µmol/L.

B1: wildtype myosin regulatory light chain (WT-RLC), unlabeled recombinant (natural protein)
chain: MAPKKAKKRAGGANSNVFSMFEQTQIQEFKEAFTIMDQNRDGFIDKNDLRDTFAALGRVNVKNEEIDEMIKEAPGPINFTVFLTMFGEKLKGADPEETILNAFKVFDPEGKGVLKADYVREMLTTQAERFSKEEVDQMFAAFPPDVTGNLDYKNLVHIITHGEEKD
Molecule B1 has a Kd [2] of 4 µM.

B2: Alexa 647 labelled R58Q-RLC (natural protein, human, UniProt P10916 1-166, looked up)
chain: MAPKKAKKRAGGANSNVFSMFEQTQIQEFKEAFTIMDQNRDGFIDKNDLRDTFAALGQVNVKNEEIDEMIKEAPGPINFTVFLTMFGEKLKGADPEETILNAFKVFDPEGKGVLKADYVREMLTTQAERFSKEEVDQMFAAFPPDVTGNLDYKNLVHIITHGEEKD
modifications: Alexa 647 (labelled with Alexa 647-NHS; site not stated)
B2 showed a Kd [3] of 9.7 µM.

B3: myosin regulatory light chain with the hypertrophic cardiomyopathy mutation R58Q (R58Q-RLC), unlabeled recombinant (natural protein)
chain: MAPKKAKKRAGGANSNVFSMFEQTQIQEFKEAFTIMDQNRDGFIDKNDLRDTFAALGQVNVKNEEIDEMIKEAPGPINFTVFLTMFGEKLKGADPEETILNAFKVFDPEGKGVLKADYVREMLTTQAERFSKEEVDQMFAAFPPDVTGNLDYKNLVHIITHGEEKD
For B3, the Kd [2] was 4 µM.

B4: Alexa 647 labelled WT-RLC (natural protein, human, UniProt P10916 1-166, looked up)
chain: MAPKKAKKRAGGANSNVFSMFEQTQIQEFKEAFTIMDQNRDGFIDKNDLRDTFAALGRVNVKNEEIDEMIKEAPGPINFTVFLTMFGEKLKGADPEETILNAFKVFDPEGKGVLKADYVREMLTTQAERFSKEEVDQMFAAFPPDVTGNLDYKNLVHIITHGEEKD
modifications: Alexa 647 (labelled with Alexa 647-NHS; site not stated)
Work on B4 yielded a Kd [3] of 8.6 µM.

ERRDSLLVIQWNIRAFMGVKNWPWMKLYFKIK [RLC binding site peptide of the human β-cardiac myosin heavy chain (amino acids 805–837)] showed a Kd [4] of less than 500 nM.
